Among the data in a protein production outcome set (Wang et al. 2014) are protein production values, retold here.
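Further: failed if final PepcDB status was selected cloned or expressed and not failed if soluble or beyond.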

The nature of this series: label from the status in PepcDB records.
On to “MKRLTPYSWLILIIFSSCLTGNKVASTDKQIESLLSQMTLEEKIGMLHSNTMFSSTGVPRLGIPDLHYSDGPHGVRFEGVANGWESARWDNDACSYLPALSALASTWNRDLAQLYGEVLGAECKARGKHVSLAPGVNIHRSLLNGRNWEYFSEDPFFSGELAVPYIQGVQSQGVASCVKHFALNSQAYNQYKVSVEVDERTLHEIYLPAFEAAIQRGGAMAAMAAYNKVRGLWCTESPYLLDTLLRDELGFDGLVVSDWNAVHNTERTALCGMDVEMGTSIKENGKYAFNKYYLADPLLKKVRNGEIPEEAVNKKVRNILKLMIRLDLIGQAPYDTTGMAAKLAIPAHTKAAREIAEESLVLLKNSKDMLPLDPAQYKNVAVIGANATEVFAAGGGSTKLKAKYEVTPLEGLQNLLDGKARIEYAPGYQLSKKAYKVGHWFTNEFDKSDEELYKKAINTAAQAELVIYIGGTSHEHGSDCEGYDKPNLKLPYQQDRLLKGILEVNPNTVVVLISGGPVEIGEWYNDATALLHGSFLGMEGGNALARTLFGEVNPSGKLTTTWCKRLEDMPDHVFGEYPGINDTVRFKEGLMVGYRYFDTYRVVPLFEFGYGLSYTTFTYSNIKMKPVWKDSDTEFAVSFTVTNTGKRYGQEIAQLYLHQNKCSVERPFKELKGFTKVGLKPGESKQVTIKLPRRALQYYDTESKRWKDEPGMFTVLIGASSRDIKLQKDFELKK”, for which the protein production entry was “failed”.

Take “MKRLLERSHALLTAPVGATPRVLALVAALLVVPTYVAPLWNLTMFAPQYGDGLRLDIYSYKLEGGNHGQDLKEINLLNHYIGMHDLAEEDFREFKWMPFVMGGLALVFLRAAVMGRVLDLLDSLVVFTWFGLFSLWSFGYKLYSYGHDLAPGAPVKVPPFMPPMIGSAQLANFEVYSYPGLGSYALFAVGLALAVALALGVRATLRRSAAAPLPRGGP”: the protein production entry is “failed”.

Take “MNKKKDILVIGFALFSIFFGAGNLIFPPYIGLTSGGEWLISFLGFIISDVGIIFLSIVAVSKAGSFQGVVGRAGKKFGITLEILMMLCLGPILVVPRTAATTFEMSISPLLGNVNPYVFSVIFFLIVFVLTIKPNKVMDIIGKVLTPLLLISLAVLIIKGIINPIGDLENVNSGKLFMTGITQGYQTMDALGTGGIVALVMASFASKGYKDKKENRMLTIKSALIACIGLAIVYGGLTFLGATSSTLYDSSISQTTLLMNITNAILGSTGTIMLAIVIGLACLTTAVGLTSVTAKYFEDVSNKKLKYKYIVIAICVFSALSSNLGVDKIIEIAVPILSLIYPVSILLVVMSIFEKFVPNNVVVKGATYATLLISLLTVIDSLGIKFEFVHKLPLANLGFNWVVPAIVGGLIAGLVFRKREVVSLEESY”: the protein production result is on record as “failed”.

Turning to “MNSKTHLLLALTMLIWAGSFIFIKIGLKELDPFNLAFYRFLLASPLLMAWVFWKRGLAKPSGSEWLHLSVLALSGVTLLYAFQFLALKYTTATNASILINTSAVFVALWGLVKGEANPRKLAGVFLSFAGVVLIVSKGTLEFFSSKTIFGDVLMIVDGFLWAVYTVLGSKMLLKYDHETLTAYAFALGTIFLIPFALMSGFANPVTFNPETVAALLYLSILCSVFAYVVWYYALTNADSTSVAVYVYLVPLFTAIFAFYALNEKPDFFTAIGGIITIAGVYLTTAKQHQ”, the protein production result is recorded as “failed”.

As for “MGFSDAGIYLSDPNNLCQTELGFFHEPSLGFSDQSDPQNEFHITPPIYQELQDQDLEPKSQETNNCSRKEGATVKKEEEEEDDYCKTPTRSDQILSAMPRICPPAPRKPKRVPSRSLKVRNSYRSKRMIILNVSREIDCLFNPTSLCNKIKKARYI”, the protein production entry is given as “failed”.

In the case of “MAINPNPRSVVAVRATVPEDAFTAGALGTLREGSGVVIRNDGLVLTIGYLITEAEEVWLTAYDGRVIPAHALAYDQESGFGLVQALAPTGLPAVALGDAGKARIGDAVVLADGIGRAVEAKIVTKQEFAGYWEYLLDEAIFIAPAHPSWGGAPLFGADGALLGIGSLRLQMSRAGEVADINMVVPIDLLPPILDDLLTRGQVAKPPRPWLGALSAESDGKVVVMSVTEGGPAAKAGLRQGDVISEVRDGAVDGLADFYRKLWDSGSAGAEIPMRVVRDGRETWLRVKSADRGSFLKKPQLQ”, the protein production result is “failed”.

As for “MSDLQSLQPKLLWQWFDQICAIPHPSYKEEQLAQFIINWAKTKGFFAERDEVGNVLIRKPATVGMENRKPVVLQAHLDMVPQANEGTNHNFDQDPILPYIDGDWVKAKGTTLGADNGIGMASALAVLESNDIAHPELEVLLTMTEERGMEGAIGLRPNWLRSEILINTDTEENGEIYIGCAGGENADLELPIEYQVNNFEHCYQVVLKGLRGGHSGVDIHTGRANAIKVLLRFLAELQQNQPHFDFTLANIRGGSIRNAIPRESVATLVFNGDITVLQSAVQKFADVIKAELALTEPNLIFTLEKVEKPQQVFSSQCTKNIIHCLNVLPNGVVRNSDVIENVVETSLSIGVLKTEDNFVRSTMLVRSLIESGKSYVASLLKSLASLAQGNINLSGDYPGWEPQSHSDILDLTKTIYAQVLGTDPEIKVIHAGLECGLLKKIYPTIDMVSIGPTIRNAHSPDEKVHIPAVETYWKVLTGILAHIPSR”, the protein production result is “not failed”.

In the case of “MNTVCTACMATNRLPEERIDDGAKCGRCGHSLFDGEVINATAETLDKLLQDDLPMVIDFWAPWCGPCRSFAPIFAETAAERAGKVRFVKVNTEAEPALSTRFRIRSIPTIMLYRNGKMIDMLNGAVPKAPFDNWLDEQLSRDPNS”, the protein production result is “not failed”.

For “MTTIFPPIPDRLRPLLRIAFMCGILATLPILCDVYAADEPPAARDEARPEEAAEPAATSAPAPAEQPVTFAITTILVERNTLFASDRLQEVMAPFVGDGKTADDVEKAREALEKFHHDQGYPTVIVNIPEQSVEEGIIRLQVVEQRINTVTVTGNRYFSREMILGKFPSLQPGGIPHVPTLQAEFTKAGRNPDLKITPAMAPSREVGYVDVELKIEEKLPLHGSLELNNRSSHDTSALRLNGAIRYDNLWQREHSVGLQYQTAPEKTREVQILSGSYVLPDPWHDDRRIVFYGVWSDTNTFASLGDMQVLGKGIIVGGRYLIPLAGKGLYNHSATLGIDYKRFDESAGFKTRVSYLPLSTAYDASLQDSTGYTLFNAGLNFAFRGAVTDQSEMAVKRSEAKGNYLAAILGLERQQKLPLGMGLRARIDGQLSSEPLIPNEQFVAGGMDSVRGYKESEALGDNGFHGTVELRVPDITLGSAMSMTPYVFYDMAAVELKKPLPGENRSQTLQGTGAGVRGMLFKFLEYQVDFAVALSDSDRIKEGDQRVHFRVSCAF”, the protein production result is recorded as “failed”.

Regarding “MSLTEKFRPTLKDVARQAGVSIATASRALADNPAVAASTRERIQQLASDLGYRANAQARALRSSRSNTIGVIVPSLINHYFAAMVTEIQSTASKAGLATIITNSNEDATTMSGSLEFLTSHGVDGIICVPNEECANQLEDLQKQGMPVVLVDRELPGDSTIPTATSNPQPGIAAAVELLAHNNALPIGYLSGPMDTSTGRERLEDFKAACANSKIGEQLVFLGGYEQSVGFEGATKLLDQGAKTLFAGDSMMTIGVIEACHKAGLVIGKDVSVIGFDTHPLFALQPHPLTVIDQNVEQLAQRAVSILTELIAGTVPSVTKTTIPTALIHRESIINSTLRKEGHHHHHH”, the protein production entry is “not failed”.

In the case of “MTIADIVMLTATIIIWSLLIVNILLVIFGYVYYLKTDPVAPPPVEDEDAPFVSIMVPAHNEGIVIVRTVEALLNFNYPQDRYEIIVINDNSSDNSAELLANVQKKAVNRNLQIINTDNITGGKGKSNALNIGFKQAKGDVIAIYDADNTPEPNALRYLVGELIASEEYGAVIGKFRTRNRNASLLTRFINIETLAFQWMAQAGRFQLFKLCTIPGTNFIVRRSIIEAIGGWDDKALAEDTEISFRIYMMGYKIKFQPKAVTWEQEPQTLSVWFRQRTRWVKGNIYVIVKNAKLLFNPKASRIRFDILYFLSIYFLLMTSLVLSDIMLVLSMSGYLTTTLQGFSNSLWLLAILLFIFSTFVSITTEKGEMTLENILIIALMYITYSQMWLVVAAYGMVMYIKENVFHKQTQTKWYKTERFK”, the protein production result is listed as “failed”.

With “MQSPEKIDPTWEDSVIDSFISFVRSYDGDFTCIYKLADTVSDEYSLQKIIDFLSSTPQGKQAFQKRPQLGVVDLPKLHQLPTDTLGYVYADQMLQNNLQPLQSHEIDNDYQFFKTHITETHDLWHIVTGADTSILGEIQLEAFYVSQLYASRFWLALLAKNLLKAVIYDIELSTPYMDAISTGWVMAKQAKPLFGLEWNLLWEKPLADVRTSLNIILPVNLEHHHHHH”, the protein production result is listed as “not failed”.

With “MTKGSLSGLPRENIELPDGSVLRRRSLVSDDAFIDAVTADVGHLGEWLRWARHPPTREETERFRAEQDADWDAGRSFVYVLTPPDRHDQVLGGGAMFPNGEVGVLEIGYWVCSPATGRGLATRAAAALTEEGLGLPGVKAMEIHCDRANARSAAIPPRIGYRLLRIEADEPQTVAEAGRSMVWRHDGA”, the protein production result is “failed”.

For the sequence “MSPEGAERYDRNCDHQFQKGHVLIEMMGIKKGDFVLDVGCGTGRQALNVAGIIGPAGKLTGIDPSSYRIELARKKFEGDSSGNVRFLVRQAENLQDIPDNSINHAYFCSSFHWVDDKKTALNEIFRVLRPGGKVGMTTLDRNSPNTMKALIDPILAKFGIERRHEWHRGMKKVTAPELHDLLSGAGFTSISIEPRAVPRKYNSPEEFLQHPEEKDSSRGILRDISNETLEKLRQEITEEFRKAQTPEDIGFGNITLFAIATKAQEGLEHHHHHH”, the protein production entry is “failed”.

Turning to “MFKTLEVKYMEDRVLDWAVYEKTAREMVAEGLVLLKNDNKALPLKQGETVSVFGRMQNHYYKSGTGSGGMVNVAKVVGILDALNECKDVNVNQKLAETYAAWDKEHPVELGLGWGQEPWSQAEMPVTEELVQEAAGESDSAIVIIARTAGEDKDNTLEKGAFMLTDIETDMLRLVRENFQKMVVLLNVGGLIDMSFLDTISPDACMYVWQGGMVGGYGVVDVLVGDVSPSGKLTDTIAYDIKDYPAYDNFGGEERNFYAEDIYVGYRYFETFAKDKVRYPFGYGLSYTDFKIGVKHASLDFEKGVANICVKVTNTGKRLGKEVVQVYGEMPQGRLGKPSRVLIDFAKTKELVPGLSDELKFEIPLDRMASFDDSGATGHRNCYVLEAGDYTIHVGNSIRNTTECLFFELAETVELQKLQEALAPYEKFDRMKPFCDENGRMLIEYEETPLVTVDMYDRREQELPEEIPVTGDKGITLLDVREGKATMDEFIAQFDDEDLACFVRGEGMGSSLVTAGTASAFAGVSPNLIAHKIPSVCCDDGPSGMRLDSGMKAFSLPNGTLCGCSFNKELNTRLYALLGLEMTANKVEVLLGPGMNIHRHPLNGRNFEYFSEDPYLTGSIATAQLEGLKSSGVSGTIKHFCGNNQEYHRHTMDSVISQRALREVYLKGFEIAVKSGYADSVMTTYGLVNGLYTAGSYDLNTTILRNEWGFTGVVMTDWWASINRRGMEPDANDFATMIQAQNDMYMCCPDGSKNMGGDNVLEALHDGRILRAELQRIAKNVCSFAMDTNAFKRLVGEPVEIEIINRPKQADDFSIDDVEYINVDRDILIDLTEKASTADTNYVIALDVEHPGEYDVSLRGSSTLEKLAQLPCTLFFNGFPVSNFTFNGTDGKDVVIRKEVKFYSRFNVLRLYVKSNGLDLKDIKFSFEKEF”, the protein production entry was “failed”.

In the case of “MEDPLGRLEWIKFLSAFYDKEDKAENYFNQQVSKVMATENKVSSLKKPKVAFGMVDNGKVYIPAKNSYAAKMVDMAGGDYIFKDLNNKSGYITLEDFYSKSKDADVLIYSSSKEYTPSLKSMLSAAPILKTIKPVKNKKVWCFGKDYYQAIDKTDEIIEDLASIFHPESFKGYKIKHYSHLEHHHHHH”, the protein production result was “not failed”.

With “MTTYTFDQVEEAIEQLYPDFTINTIEISGEGNDCIAYEINGNFIFKFPKHSRASINLLNEVTVLKTIHNELSLPIPEVVFTGMPSEMCQMSFAGFTKIKGVPLTPLLLKNLPKQSQDQAAKDLARFLSELHSINISGFKSNLVLDFREKINEDNKKIKKLLSRELKGHQMKKVDDFYRDILDNEIYFKYYPCLIHNDFSSDHILFDTEKNTICGIIDFGDAAISDPDNDFISLMEDDEEYGMEFVSKILNHYKHKDIPTVLEKYMMKEKYWSFEKIIYGKEYGYMDWYEEGLNEIRSIKIK”, the protein production result is “not failed”.
